The substances below were run against Human Myelin Basic Protein (Homo sapiens, UniProt P02686) (assay: Phage display library screening (Example 2, Python script analysis), binding to Human Myelin Basic Protein). Conditions: R3 Myelin Basic Protein; combined unique sequence count, Python/R script analysis.
Design: Enzo 200-606-M001 from human; purchased Enzo 200-606-M001; host or cells: human brain (tissue-derived)
Protocol: Phage display library screens were used to identify peptides that bind to target proteins (including specific laminin trimers) that are expressed in human nerves, as described in Table 3. These screens were also carried out to identify peptides that could bind selectively to nerves versus muscle. Such peptides could therefore be useful for systemic in-vivo labeling of nerves during fluorescence assisted surgery. Specifically, m 13 phage libraries expressing 7 or 12 random amino acid peptides, or a cyclic peptide CX7C, on the N-terminus of the minor coat protein pIII (New England Biolabs; NEB) were processed through multiple rounds of selection for binding to target proteins expressed in nerves, or to excised human nerves, nerve extracts, or muscle, as described further below.
For screening against the specified target proteins in Table 1, including LN211, LN411, LN421, and LN521, the phage library was processed by up to 4 binding and wash cycles. For selection, phage libraries were incubated for up to 24 hours at 4° C. in 96 well plates that had been coated with one of the target proteins. Plates were then washed with PBS and phage were eluted using 0.2M glycine pH 2.0. Phage supernatants where then neutralized with Tris pH 9.0 prior to plating on TGI bacteria and LB agar plates. Colonies were counted to determine titer followed by DNA preparation of pools of phage and NextGen sequencing. After rounds of selection, phage were pooled and amplified for iterative selection. Phage that were bound at each round were sequenced. NextGen sequencing of pools after 2, 3 and 4 rounds of selection was used to isolate candidate sequences that were analyzed further to identify those that specifically bound each unique target protein.
Python Script Analysis: For all NEB sequence datasets, a python script was used to translate, trim, and filter the peptide sequences. The script translated the nucleotide sequences, translating amber codons as glutamine in peptide sequences, and then trimmed the end sequences that come from the vector. Secondly, the script combined the unique counts of trimmed peptides with identical sequences. […] Another python script was used to group peptides from different assays according to protein target (Myelin Protein Zero, Myelin Proteolipid Protein, Myelin Basic Protein, and Nidogen-2) and also combine the unique sequence counts for each peptide. An R script was written to merge the peptide sequences from different data files and determine peptides specific for each protein target but absent from different protein binding datasets. Peptide sequences were ranked by unique sequence count.

Human Myelin Basic Protein, sequence (P02686 134-304): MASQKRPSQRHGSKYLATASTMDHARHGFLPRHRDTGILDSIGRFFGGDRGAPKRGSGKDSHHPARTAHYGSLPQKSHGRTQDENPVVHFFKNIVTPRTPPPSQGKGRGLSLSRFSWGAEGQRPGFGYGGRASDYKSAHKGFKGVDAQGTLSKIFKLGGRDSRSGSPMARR

Substance	Count
SLDHLRL (R3 Myelin Basic Protein-binding peptide)	6
AISWKGF (R3 Myelin Basic Protein-binding peptide)	6
HTGLRSL (R3 Myelin Basic Protein-binding peptide)	7
NLLQGVM (R3 Myelin Basic Protein-binding peptide)	7
SSFYVAY (R3 Myelin Basic Protein-binding peptide)	6
GPITHAI (R3 Myelin Basic Protein-binding peptide)	7
MPSLKHQ (R3 Myelin Basic Protein-binding peptide)	8
GSPYGWG (R3 Myelin Basic Protein-binding peptide)	6
RVIPSTT (R3 Myelin Basic Protein-binding peptide)	6
RTTDWWT (R3 Myelin Basic Protein-binding peptide)	6
DSQEKSV (R3 Myelin Basic Protein-binding peptide)	6
GRHTDVV (R3 Myelin Basic Protein-binding peptide)	6
HSSATMS (R3 Myelin Basic Protein-binding peptide)	6
SEPGTVR (R3 Myelin Basic Protein-binding peptide)	7
TSRLVST (R3 Myelin Basic Protein-binding peptide)	8
LVPPVNH (R3 Myelin Basic Protein-binding peptide)	6
CNRVPFKQC (R3 Myelin Basic Protein-binding peptide)	7
SGPFPLV (R3 Myelin Basic Protein-binding peptide)	6
YLPPPLP (R3 Myelin Basic Protein-binding peptide)	7
IILPSAQ (R3 Myelin Basic Protein-binding peptide)	8
TLLTALT (R3 Myelin Basic Protein-binding peptide)	7
NTPKVLA (R3 Myelin Basic Protein-binding peptide)	10

Substance	Count
VRGTPNH (R3 Myelin Basic Protein-binding peptide)	6
VVDMSTY (R3 Myelin Basic Protein-binding peptide)	7
DVVKDVI (R3 Myelin Basic Protein-binding peptide)	7
AGSLLSL (R3 Myelin Basic Protein-binding peptide)	6
SLKTTNP (R3 Myelin Basic Protein-binding peptide)	6
HAHWARL (R3 Myelin Basic Protein-binding peptide)	6
SYVTVFR (R3 Myelin Basic Protein-binding peptide)	6
VLSPYHN (R3 Myelin Basic Protein-binding peptide)	6
HRTHLHQ (R3 Myelin Basic Protein-binding peptide)	6
ESKSPRE (R3 Myelin Basic Protein-binding peptide)	6
KGQPLFR (R3 Myelin Basic Protein-binding peptide)	7
YTASPRW (R3 Myelin Basic Protein-binding peptide)	6
TQMTMDS (R3 Myelin Basic Protein-binding peptide)	10
HMAGVNQ (R3 Myelin Basic Protein-binding peptide)	7
FLNQAPT (R3 Myelin Basic Protein-binding peptide)	7
TPVRLNT (R3 Myelin Basic Protein-binding peptide)	6
GEPALVT (R3 Myelin Basic Protein-binding peptide)	6
YVNRVKQ (R3 Myelin Basic Protein-binding peptide)	6
SKLAGFP (R3 Myelin Basic Protein-binding peptide)	6
HFTFFPI (R3 Myelin Basic Protein-binding peptide)	6
AQLGAFR (R3 Myelin Basic Protein-binding peptide)	6
SNAERWR (R3 Myelin Basic Protein-binding peptide)	9

Substance	Count
ARVPNPL (R3 Myelin Basic Protein-binding peptide)	6
QQAHLQS (R3 Myelin Basic Protein-binding peptide)	8
YATATPS (R3 Myelin Basic Protein-binding peptide)	8
VAHQRVS (R3 Myelin Basic Protein-binding peptide)	8
NGPNSLQ (R3 Myelin Basic Protein-binding peptide)	6
FQLSYET (R3 Myelin Basic Protein-binding peptide)	6
LFRRVTE (R3 Myelin Basic Protein-binding peptide)	7
THKHMMT (R3 Myelin Basic Protein-binding peptide)	6
HPWSHPN (R3 Myelin Basic Protein-binding peptide)	6
LTKSLNH (R3 Myelin Basic Protein-binding peptide)	7
AAGQRSF (R3 Myelin Basic Protein-binding peptide)	7
HQPLFPR (R3 Myelin Basic Protein-binding peptide)	6
NFAQHMQ (R3 Myelin Basic Protein-binding peptide)	9
TPQVMLK (R3 Myelin Basic Protein-binding peptide)	8
NMYPRVT (R3 Myelin Basic Protein-binding peptide)	7
MTNHGNA (R3 Myelin Basic Protein-binding peptide)	7
SWFESHN (R3 Myelin Basic Protein-binding peptide)	8
VGTFWTR (R3 Myelin Basic Protein-binding peptide)	6
TGPSSAV (R3 Myelin Basic Protein-binding peptide)	6
VIRTAAM (R3 Myelin Basic Protein-binding peptide)	6
TIRVAHT (R3 Myelin Basic Protein-binding peptide)	6
IGTRWHQ (R3 Myelin Basic Protein-binding peptide)	6

Substance	Count
SAVLMPP (R3 Myelin Basic Protein-binding peptide)	6
SRHLPPL (R3 Myelin Basic Protein-binding peptide)	6
LELHQNV (R3 Myelin Basic Protein-binding peptide)	6
YSSRLND (R3 Myelin Basic Protein-binding peptide)	6
MDLSLKP (R3 Myelin Basic Protein-binding peptide)	10
SYRSMAP (R3 Myelin Basic Protein-binding peptide)	6
ALYNQMT (R3 Myelin Basic Protein-binding peptide)	6
SNAHTLP (R3 Myelin Basic Protein-binding peptide)	6
SGNLKKA (R3 Myelin Basic Protein-binding peptide)	7
AILTRPP (R3 Myelin Basic Protein-binding peptide)	7
SEGLTLL (R3 Myelin Basic Protein-binding peptide)	6
SVGLPTK (R3 Myelin Basic Protein-binding peptide)	6
AVRQTTM (R3 Myelin Basic Protein-binding peptide)	7
QGTLFDT (R3 Myelin Basic Protein-binding peptide)	7
QGAYVRP (R3 Myelin Basic Protein-binding peptide)	6
AIPPRKL (R3 Myelin Basic Protein-binding peptide)	6
WSPRWPS (R3 Myelin Basic Protein-binding peptide)	7
FVLPNKN (R3 Myelin Basic Protein-binding peptide)	8
FSAGVGK (R3 Myelin Basic Protein-binding peptide)	7
TPVLWLP (R3 Myelin Basic Protein-binding peptide)	6
IPIPYRT (R3 Myelin Basic Protein-binding peptide)	6

Reference: US20240207421A1, “NERVE TARGETING PEPTIDES AND METHODS OF USE” (ALUME BIOSCIENCES, INC., priority 2020, published 2024)
